# Biological target: recombinant soluble full-length human TDP-43 (transactive response DNA binding protein-43) (Homo sapiens (Human)., UniProt Q13148)
# Test: SPR
# recombinant soluble full-length human TDP-43 (transactive response DNA binding protein-43), sequence (Q13148 whole entry): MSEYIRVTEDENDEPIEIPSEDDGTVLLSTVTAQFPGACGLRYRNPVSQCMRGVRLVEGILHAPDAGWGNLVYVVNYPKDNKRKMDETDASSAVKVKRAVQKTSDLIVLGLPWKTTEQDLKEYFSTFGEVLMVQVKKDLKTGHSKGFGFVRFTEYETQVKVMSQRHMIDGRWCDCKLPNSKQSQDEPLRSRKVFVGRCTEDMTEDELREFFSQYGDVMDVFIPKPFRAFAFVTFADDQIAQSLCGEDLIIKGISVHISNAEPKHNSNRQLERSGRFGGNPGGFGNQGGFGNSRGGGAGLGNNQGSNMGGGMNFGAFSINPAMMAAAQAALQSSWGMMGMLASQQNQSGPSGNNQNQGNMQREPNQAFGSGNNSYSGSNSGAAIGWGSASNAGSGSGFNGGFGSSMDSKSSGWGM
row,Binder,Kd
1,"ACI-5891 mouse IgG2a mAb produced with the bicistronic IRES-LC/HC expression cassette (antibody, V domains shown) VH: EVQLQQSGPELVKPGASVKISCKTSGFTFTEYSMHWVKQSHGKSLEWIGGINPNNGGTSYNQKFKGKATLTVDKSSSTAYMELRSLTSEDSAVYYCARESWGQGTTLTVSS VL: not shown",0.09 nM
2,"anti-human TDP-43 mAb ACI-5891, mouse IgG2a, conventionally produced reference mAb (antibody, V domains shown) VH: EVQLQQSGPELVKPGASVKISCKTSGFTFTEYSMHWVKQSHGKSLEWIGGINPNNGGTSYNQKFKGKATLTVDKSSSTAYMELRSLTSEDSAVYYCARESWGQGTTLTVSS VL: not shown",0.092 nM
3,"ACI-5891 human IgG1 chimeric reference mAb, conventionally produced (antibody, V domains shown) VH: EVQLQQSGPELVKPGASVKISCKTSGFTFTEYSMHWVKQSHGKSLEWIGGINPNNGGTSYNQKFKGKATLTVDKSSSTAYMELRSLTSEDSAVYYCARESWGQGTTLTVSS VL: not shown",0.087 nM
4,"ACI-5891 human IgG1 chimeric mAb produced with the bicistronic IRES-LC/HC expression cassette (antibody, V domains shown) VH: EVQLQQSGPELVKPGASVKISCKTSGFTFTEYSMHWVKQSHGKSLEWIGGINPNNGGTSYNQKFKGKATLTVDKSSSTAYMELRSLTSEDSAVYYCARESWGQGTTLTVSS VL: not shown",0.092 nM
